Measured values published in the supplement of paper PMC5998384.

Columns and labels:
[1] = test system: HeLa Kyoto; assay: solubility in G1/S (NP-40 vs SDS abundance) (log2 ratio); higher = more soluble; details: cell cycle stage: G1/S
[2] = test system: HeLa Kyoto; assay: melting temperature (median over replicates), in situ; higher = more thermally stable
[3] = test system: HeLa Kyoto; assay: solubility change mitosis vs G1/S (difference of NP-40 vs SDS log2 ratios) (log2 ratio difference); higher = more soluble in mitosis
[4] = test system: HeLa Kyoto; assay: thermal stability score vs G1/S (z-score of summed log2 fold changes over temperatures); higher = more thermally stable than in G1/S
[5] = cell cycle stage: early G1 (4.5 h after nocodazole release)
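For melting temperature (median over replicates), in situ in this document: HeLa Kyoto cells synchronized by double thymidine or nocodazole block, proteins quantified by TMT10plex mass spectrometry, three independent biological replicates.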
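For solubility change mitosis vs G1/S (difference of NP-40 vs SDS log2 ratios) in this document: synchronized HeLa Kyoto cells (double thymidine block for G1/S, nocodazole release for mitosis), protein amounts in NP-40 versus SDS lysates quantified by mass spectrometry, three biological replicates.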
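For solubility in G1/S (NP-40 vs SDS abundance) in this document: HeLa Kyoto cells arrested at G1/S by double thymidine block, proteins quantified by TMT10plex mass spectrometry in mild NP-40 versus SDS extracts, three biological replicates.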
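For thermal stability score vs G1/S (z-score of summed log2 fold changes over temperatures) in this document: synchronized HeLa Kyoto cells, proteins quantified by TMT10plex mass spectrometry, three biological replicates, mitosis taken 0.5 h after nocodazole release, G1/S directly after double thymidine block.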

Sequence | solubility in G1/S (log2) [1] | melting temperature ([2]; cell cycle stage: G1/S) | melting temperature ([2]; cell cycle stage: mitosis) | solubility change mitosis (log2) [3] | thermal stability score [4, 5] | thermal stability score ([4]; cell cycle stage: mitosis)
MPPKVTSELLRQLRQAMRNSEYVTEPIQAYIIPSGDAHQSEYIAPCDCRRAFVSGFDGSAGTAIITEEHAAMWTDGRYFLQAAKQMDSNWTLMKMGLKDTPTQEDWLVSVLPEGSRVGVDPLIIPTDYWKKMAKVLRSAGHHLIPVKENLVDKIWTDRPERPCKPLLTLGLDYTGISWKDKVADLRLKMAERNVMWFVVTALDEIAWLFNLRGSDVEHNPVFFSYAIIGLETIMLFIDGDRIDAPSVKEHLLLDLGLEAEYRIQVHPYKSILSELKALCADLSPREKVWVSDKASYAVSETIPKDHRCCMPYTPICIAKAVKNSAESEGMRRAHIKDAVALCELFNWLEKEVPKGGVTEISAADKAEEFRRQQADFVDLSFPTISSTGPNGAIIHYAPVPETNRTLSLDEVYLIDSGAQYKDGTTDVTRTMHFGTPTAYEKECFTYVLKGHIAVSAAVFPTGTKGHLLDSFARSALWDSGLDYLHGTGHGVGSFLNVHEGPCGISYKTFSDEPLEAGMIVTDEPGYYEDGAFGIRIENVVLVVPVKTKYNFNNRGSLTFEPLTLVPIQTKMIDVDSLTDKECDWLNNYHLTCRDVIGKELQKQGRQEALEWLIRETQPISKQH [XPNPEP1] | 0.105 | 53 °C | 51.9 °C | -0.14 | -1 | -3.97
MPPPQGDVTALFLGPPGLGKSALIAALCDKDVETLEAPEGRPDSGVPSLRAAGPGLFLGELSCPPAAPGPWAAEANVLVLVLPGPEGNGEPLAPALGEAALAALARGTPLLAVRNLRPGDSQTAAQARDQTAALLNSAGLGAADLFVLPANCGSSDGCEELERLRAALQSQAEALRRLLPPAQDGFEVLGAAELEAVREAFETGGLEAALSWVRSGLERLGSARLDLAVAGKADVGLVVDMLLGLDPGDPGAAPASVPTAPTPFPAPERPNVVLWTVPLGHTGTATTAAAASHPTHYDALILVTPGAPTEKDWAQVQALLLPDAPLVCVRTDGEGEDPECLGEGKMENPKGESLKNAGGGGLENALSKGREKCSAGSQKAGSGEGPGKAGSEGLQQVVGMKKSGGGDSERAAALSPEDETWEVLEEAPPPVFPLRPGGLPGLCEWLRRALPPAQAGALLLALPPASPSAARTKAAALRAGAWRPALLASLAAAAAPLPGLGWACDVALLRGQLAEWRRGLGLEPTALARRERALGLASGELAARAHFPGPVTRAEVEARLGAWAGEGTAGGAALGALSFLWPAGGAAATGGLGYRAAHGVLLQALDEMRADAEAVLAPPEPAQ [IRGQ] | 0.437 | 51.3 °C | 51.3 °C | 0.141 | -0.649 | 0.0432
MPPPSDIVKVAIEWPGANAQLLEIDQKRPLASIIKEVCDGWSLPNPEYYTLRYADGPQLYITEQTRSDIKNGTILQLAISPSRAARQLMERTQSSNMETRLDAMKELAKLSADVTFATEFINMDGIIVLTRLVESGTKLLSHYSEMLAFTLTAFLELMDHGIVSWDMVSITFIKQIAGYVSQPMVDVSILQRSLAILESMVLNSQSLYQKIAEEITVGQLISHLQVSNQEIQTYAIALINALFLKAPEDKRQDMANAFAQKHLRSIILNHVIRGNRPIKTEMAHQLYVLQVLTFNLLEERMMTKMDPNDQAQRDIIFELRRIAFDAESDPSNAPGSGTEKRKAMYTKDYKMLGFTNHINPAMDFTQTPPGMLALDNMLYLAKVHQDTYIRIVLENSSREDKHECPFGRSAIELTKMLCEILQVGELPNEGRNDYHPMFFTHDRAFEELFGICIQLLNKTWKEMRATAEDFNKVMQVVREQITRALPSKPNSLDQFKSKLRSLSYSEILRLRQSERMSQDDFQSPPIVELREKIQPEILELIKQQRLNRLCEGSSFRKIGNRRRQERFWYCRLALNHKVLHYGDLDDNPQGEVTFESLQEKIPVADIKAIVTGKDCPHMKEKSALKQNKEVLELAFSILYDPDETLNFIAPNKYEYCIWIDGLSALLGKDMSSELTKSDLDTLLSMEMKLRLLDLENIQIPEAPPPIPKEPSSYDFVYHYG [ELMO2] | 0.00667 | 49.5 °C | 49.5 °C | -0.134 | 0.0114 | 0.0809
MPQTRSQAQATISFPKRKLSRALNKAKNSSDAKLEPTNVQTVTCSPRVKALPLSPRKRLGDDNLCNTPHLPPCSPPKQGKKENGPPHSHTLKGRRLVFDNQLTIKSPSKRELAKVHQNKILSSVRKSQEITTNSEQRCPLKKESACVRLFKQEGTCYQQAKLVLNTAVPDRLPAREREMDVIRNFLREHICGKKAGSLYLSGAPGTGKTACLSRILQDLKKELKGFKTIMLNCMSLRTAQAVFPAIAQEICQEEVSRPAGKDMMRKLEKHMTAEKGPMIVLVLDEMDQLDSKGQDVLYTLFEWPWLSNSHLVLIGIANTLDLTDRILPRLQAREKCKPQLLNFPPYTRNQIVTILQDRLNQVSRDQVLDNAAVQFCARKVSAVSGDVRKALDVCRRAIEIVESDVKSQTILKPLSECKSPSEPLIPKRVGLIHISQVISEVDGNRMTLSQEGAQDSFPLQQKILVCSLMLLIRQLKIKEVTLGKLYEAYSKVCRKQQVAAVDQSECLSLSGLLEARGILGLKRNKETRLTKVFFKIEEKEIEHALKDKALIGNILATGLP [CDC6] | -0.114 | 50.1 °C | 53.2 °C | 0.351 | 0.564 | 0.496
MPRAPAPLYACLLGLCALLPRLAGLNICTSGSATSCEECLLIHPKCAWCSKEDFGSPRSITSRCDLRANLVKNGCGGEIESPASSFHVLRSLPLSSKGSGSAGWDVIQMTPQEIAVNLRPGDKTTFQLQVRQVEDYPVDLYYLMDLSLSMKDDLDNIRSLGTKLAEEMRKLTSNFRLGFGSFVDKDISPFSYTAPRYQTNPCIGYKLFPNCVPSFGFRHLLPLTDRVDSFNEEVRKQRVSRNRDAPEGGFDAVLQAAVCKEKIGWRKDALHLLVFTTDDVPHIALDGKLGGLVQPHDGQCHLNEANEYTASNQMDYPSLALLGEKLAENNINLIFAVTKNHYMLYKNFTALIPGTTVEILDGDSKNIIQLIINAYNSIRSKVELSVWDQPEDLNLFFTATCQDGVSYPGQRKCEGLKIGDTASFEVSLEARSCPSRHTEHVFALRPVGFRDSLEVGVTYNCTCGCSVGLEPNSARCNGSGTYVCGLCECSPGYLGTRCECQDGENQSVYQNLCREAEGKPLCSGRGDCSCNQCSCFESEFGKIYGPFCECDNFSCARNKGVLCSGHGECHCGECKCHAGYIGDNCNCSTDISTCRGRDGQICSERGHCLCGQCQCTEPGAFGEMCEKCPTCPDACSTKRDCVECLLLHSGKPDNQTCHSLCRDEVITWVDTIVKDDQEAVLCFYKTAKDCVMMFTYVELPSGKSNLTVLREPECGNTPNAMTILLAVVGSILLVGLALLAIWKLLVTIHDRREFAKFQSERSRARYEMASNPLYRKPISTHTVDFTFNKFNKSYNGTVD [ITGB5] | -0.15 | 56 °C | 56.7 °C | 0.0246 | 0.876 | 3.15
MPRVKAAQAGRQSSAKRHLAEQFAVGEIITDMAKKEWKVGLPIGQGGFGCIYLADMNSSESVGSDAPCVVKVEPSDNGPLFTELKFYQRAAKPEQIQKWIRTRKLKYLGVPKYWGSGLHDKNGKSYRFMIMDRFGSDLQKIYEANAKRFSRKTVLQLSLRILDILEYIHEHEYVHGDIKASNLLLNYKNPDQVYLVDYGLAYRYCPEGVHKEYKEDPKRCHDGTIEFTSIDAHNGVAPSRRGDLEILGYCMIQWLTGHLPWEDNLKDPKYVRDSKIRYRENIASLMDKCFPEKNKPGEIAKYMETVKLLDYTEKPLYENLRDILLQGLKAIGSKDDGKLDLSVVENGGLKAKTITKKRKKEIEESKEPGVEDTEWSNTQTEEAIQTRSRTRKRVQK [VRK1] | -0.215 | 48.2 °C | 49.8 °C | -0.0401 | 3.16 | 3.91
MPRVVPDQRSKFENEEFFRKLSRECEIKYTGFRDRPHEERQARFQNACRDGRSEIAFVATGTNLSLQFFPASWQGEQRQTPSREYVDLEREAGKVYLKAPMILNGVCVIWKGWIDLQRLDGMGCLEFDEERAQQEDALAQQAFEEARRRTREFEDRDRSHREEMEVRVSQLLAVTGKKTTRP [CBFB] | 0.199 | 49 °C | 51.2 °C | -0.072 | 0.755 | 0.955
MPRVYIGRLSYQARERDVERFFKGYGKILEVDLKNGYGFVEFDDLRDADDAVYELNGKDLCGERVIVEHARGPRRDGSYGSGRSGYGYRRSGRDKYGPPTRTEYRLIVENLSSRCSWQDLKDYMRQAGEVTYADAHKGRKNEGVIEFVSYSDMKRALEKLDGTEVNGRKIRLVEDKPGSRRRRSYSRSRSHSRSRSRSRHSRKSRSRSGSSKSSHSKSRSRSRSGSRSRSKSRSRSQSRSRSKKEKSRSPSKEKSRSRSHSAGKSRSKSKDQAEEKIQNNDNVGKPKSRSPSRHKSKSKSRSRSQERRVEEEKRGSVSRGRSQEKSLRQSRSRSRSKGGSRSRSRSRSKSKDKRKGRKRSREESRSRSRSRSKSERSRKRGSKRDSKAGSSKKKKKEDTDRSQSRSPSRSVSKEREHAKSESSQREGRGESENAGTNQETRSRSRSNSKSKPNLPSESRSRSKSASKTRSRSKSRSRSASRSPSRSRSRSHSRS [SRSF4] | -0.671 | 50.7 °C | 50.2 °C | 0.361 | -1.55 | -1
MPSALAIFTCRPNSHPFQERHVYLDEPIKIGRSVARCRPAQNNATFDCKVLSRNHALVWFDHKTGKFYLQDTKSSNGTFINSQRLSRGSEESPPCEILSGDIIQFGVDVTENTRKVTHGCIVSTIKLFLPDGMEARLRSDVIHAPLPSPVDKVAANTPSMYSQELFQLSQYLQEALHREQMLEQKLATLQRLLAITQEASDTSWQALIDEDRLLSRLEVMGNQLQACSKNQTEDSLRKELIALQEDKHNYETTAKESLRRVLQEKIEVVRKLSEVERSLSNTEDECTHLKEMNERTQEELRELANKYNGAVNEIKDLSDKLKVAEGKQEEIQQKGQAEKKELQHKIDEMEEKEQELQAKIEALQADNDFTNERLTALQVRLEHLQEKTLKECSSLEHLLSKSGGDCTFIHQFIECQKKLIVEGHLTKAVEETKLSKENQTRAKESDFSDTLSPSKEKSSDDTTDAQMDEQDLNEPLAKVSLLKDDLQGAQSEIEAKQEIQHLRKELIEAQELARTSKQKCFELQALLEEERKAYRNQVEESTKQIQVLQAQLQRLHIDTENLREEKDSEITSTRDELLSARDEILLLHQAAAKVASERDTDIASLQEELKKVRAELERWRKAASEYEKEITSLQNSFQLRCQQCEDQQREEATRLQGELEKLRKEWNALETECHSLKRENVLLSSELQRQEKELHNSQKQSLELTSDLSILQMSRKELENQVGSLKEQHLRDSADLKTLLSKAENQAKDVQKEYEKTQTVLSELKLKFEMTEQEKQSITDELKQCKNNLKLLREKGNNKPWPWMPMLAALVAVTAIVLYVPGLARASP [SLMAP] | 0.152 | 50.6 °C | 51.2 °C | 0.0117 | 0.404 | 0.436
